Measurements taken from patent publication US20100215684A1 (UNIVERSITY OF QUEENSLAND, published 2010).

Target: T1, Human fibrinogen (Sigma), biotinylated (human, UniProt P02671 20-629; P02675 31-491; P02679 27-437)
T1 construct: also called biotinylated fibrinogen
T1 sequence 1: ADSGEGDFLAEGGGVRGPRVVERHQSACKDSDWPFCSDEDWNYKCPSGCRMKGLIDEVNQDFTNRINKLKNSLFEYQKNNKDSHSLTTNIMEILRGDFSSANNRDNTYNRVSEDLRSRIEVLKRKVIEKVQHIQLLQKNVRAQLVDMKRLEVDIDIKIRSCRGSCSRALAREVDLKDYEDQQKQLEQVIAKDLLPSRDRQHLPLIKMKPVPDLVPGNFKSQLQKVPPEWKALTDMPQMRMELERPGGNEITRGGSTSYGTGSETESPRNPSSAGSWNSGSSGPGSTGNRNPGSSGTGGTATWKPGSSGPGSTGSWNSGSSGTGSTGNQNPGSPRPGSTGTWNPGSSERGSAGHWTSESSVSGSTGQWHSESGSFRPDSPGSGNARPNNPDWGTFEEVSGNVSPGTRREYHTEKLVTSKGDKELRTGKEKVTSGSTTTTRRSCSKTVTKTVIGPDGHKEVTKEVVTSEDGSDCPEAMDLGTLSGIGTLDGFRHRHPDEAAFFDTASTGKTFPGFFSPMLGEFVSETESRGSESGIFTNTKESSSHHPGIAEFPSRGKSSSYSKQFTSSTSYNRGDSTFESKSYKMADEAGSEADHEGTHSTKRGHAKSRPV
T1 sequence 2: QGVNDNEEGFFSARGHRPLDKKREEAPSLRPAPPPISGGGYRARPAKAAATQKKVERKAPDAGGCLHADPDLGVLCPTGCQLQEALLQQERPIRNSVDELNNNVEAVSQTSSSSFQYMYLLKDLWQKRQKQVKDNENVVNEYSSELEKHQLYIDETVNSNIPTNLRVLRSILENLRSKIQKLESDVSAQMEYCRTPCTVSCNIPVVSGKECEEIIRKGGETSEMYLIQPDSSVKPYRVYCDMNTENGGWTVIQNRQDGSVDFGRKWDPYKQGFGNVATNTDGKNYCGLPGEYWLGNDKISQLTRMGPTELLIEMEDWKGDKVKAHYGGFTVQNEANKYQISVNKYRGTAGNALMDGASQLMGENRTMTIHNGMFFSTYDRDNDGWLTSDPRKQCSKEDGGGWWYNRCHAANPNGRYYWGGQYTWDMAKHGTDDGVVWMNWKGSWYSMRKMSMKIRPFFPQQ
T1 sequence 3: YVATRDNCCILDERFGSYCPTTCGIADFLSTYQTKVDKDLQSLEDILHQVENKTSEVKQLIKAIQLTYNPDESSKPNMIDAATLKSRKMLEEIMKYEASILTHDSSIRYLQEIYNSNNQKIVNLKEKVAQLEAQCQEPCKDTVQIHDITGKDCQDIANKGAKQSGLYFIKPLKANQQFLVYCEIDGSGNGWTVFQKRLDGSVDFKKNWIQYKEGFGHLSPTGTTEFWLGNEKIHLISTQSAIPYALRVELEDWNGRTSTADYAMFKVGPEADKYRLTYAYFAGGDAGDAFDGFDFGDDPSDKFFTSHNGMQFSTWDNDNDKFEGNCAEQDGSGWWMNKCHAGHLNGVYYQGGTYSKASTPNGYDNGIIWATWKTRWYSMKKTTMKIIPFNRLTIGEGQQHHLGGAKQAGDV
Assay: fibrinogen binding of expressed peptides (data not shown)

B1: S. iniae strain QMA136 M protein C-terminal amino acid sequence (309 amino acid peptide expressed from isolate QMA0136) (other)
chain: MAEIQEEANKKIAAVQTELENIDSENQSLSTANEQLKADLEQAARELDTLQSSYYTVENEKAELQKQLAEKDAKIAELEANNTELTATVADLTKALEAAKKEAEEKPALKAKVAELEKALAEAKGLGTKVAELEKDLEKAQAEAKDLETKLAETKAELEKVQAEKAELEATIEKMKKEHAEELDKLNALLADKEKLVEALNKEIEALKKDFDEKSNHSAQEKAKFQEELERLKKELAAKINMPMGNTKGMANAAGNAQTPANNGQNNAVKNQLPSTGDKAGNPFFTASAIAVMVGAGTLAYGRKRKEEE
notes: The expression construct is not described; also called QMA136 C-terminal fragment
binding result: no binding
